Results taken from PMC3773174.

Biological target: Sso1pHT (yeast t-SNARE Sso1p without the Habc domain), labelled with Cy5 (yeast)
Assay: FRET or BRET

FRET efficiency of the single protein-protein complex (H): 0.96
Substance: Snc2p (yeast v-SNARE), labelled with Cy3 (from UniProt P33328 1-115) (natural protein)
